US20250215104A1 (WALDEN BIOSCIENCES, published 2025)
Substitutions are numbered along the chain they refer to.

B1: suPAR_DB01_F03 (scFv, V domains shown)
VH: QVQLVQSGAEVKKPGASVKVSCKASGYTFTSYYMHWVRQAPGQGLEWMGWIDHENGNTIYDQKFQGRVTMTRDTSTSTVYMELSSLRSEDTAVYYCARGYDVDWFVYWGQGTLVTVSS
VL: DIQMTQSPSSLSASVGDRVTITCSARQSVSYMYWYQQKPGKAPKLLIYRTSNLASGVPSRFSGSGSGTDFTLTISSLQPEDFATYYCQQYHSYPPTFGGGTKVEIK
notes: Screened as scFv
B2: suPAR_DB04_E05 (scFv, V domains shown)
VH: QVQLVQSGAEVKKPGASVKVSCKASGFNIKDYYIHWVRQAPGQGLEWVGWIDPHSGGTNYAQKFQGRVTMTRDTSTSTVYMELSSLRSEDTAVYYCARGYDVDWFVYWGQGTLVTVSS
VL: B1 VL with Q27S
notes: scFv clone from phage display
B3: suPAR_DB01_F06 (scFv, V domains shown)
VH: B1 VH with D61A
VL: B1 VL with V29I, A54Q
notes: Screened as scFv
B4: suPAR_DB04_F03 (scFv, V domains shown)
VH: B2 VH with F27Y, N28T, V48M, H54R, G57D, A61G, Q62K, K63N
VL: B1 VL with Q27S
notes: scFv clone from phage display
B5: suPAR_DB04_G09 (scFv, V domains shown)
VH: B1 VH with Y27D, F29S, S31T
VL: B1 VL with R26K, Q27S
notes: scFv clone from phage display
B6: suPAR_DB04_G08 (scFv, V domains shown)
VH: B1 VH with Y27H, F29L, S31G, M34V
VL: B1 VL with Q27S
notes: scFv clone from phage display
B7: suPAR_DB01_F10 (scFv, V domains shown)
VH: B1 VH with N57S, I59S
VL: B1 VL with Q27S
notes: Screened as scFv
B8: suPAR_DB04_F10 (scFv, V domains shown)
VH: B1 VH with S31D, E54S, N55G, D61A
VL: B1 VL with Q27S
notes: scFv clone from phage display
B9: suPAR_DB04_G04 (scFv, V domains shown)
VH: B1 VH with T28S, M34I, N57S, D61A
VL: B1 VL with R26S
notes: scFv clone from phage display
B10: suPAR_DB01_F02 (scFv, V domains shown)
VH: B1 VH with S31N, M34V
VL: B1 VL with Q27S
notes: Screened as scFv
B11: suPAR_DB01_F04 (scFv, V domains shown)
VH: B1 VH with S31D, E54S, D61A
VL: B1 VL with Q27S
notes: Screened as scFv
B12: suPAR_DB04_G12 (scFv, V domains shown)
VH: B1 VH with T30S, S31D, I59S, D61A
VL: B1 VL with Q27S
notes: scFv clone from phage display
B13: suPAR_DB04_G10 (scFv, V domains shown)
VH: B1 VH with S31G, Y100N
VL: B1 VL with S24R, R26S, Q27S
notes: scFv clone from phage display
B14: suPAR_DB04_E10 (scFv, V domains shown)
VH: B1 VH with T30S, M34F, H53P, E54N, N55T, N57D, D61A
VL: B1 VL with Q27S
notes: scFv clone from phage display
B15: suPAR_DB04_F04 (scFv, V domains shown)
VH: B1 VH with I59S
VL: B1 VL with Q27S
notes: scFv clone from phage display
B16: suPAR_DB04_G07 (scFv, V domains shown)
VH: B1 VH with Y27F, T28S, S31T, H53P, D61A
VL: B1 VL with Q27S
notes: scFv clone from phage display
B17: suPAR_DB04_E11 (scFv, V domains shown)
VH: B1 VH with S31N, M34V
VL: B1 VL
notes: scFv clone from phage display
B18: suPAR_DB04_G06 (scFv, V domains shown)
VH: B1 VH with Y27D, M34V
VL: B1 VL with R26S
notes: scFv clone from phage display
B19: suPAR_DB04_F08 (scFv, V domains shown)
VH: B1 VH with Y27G, E54S, N57S, I59S, D61A, K63E
VL: B1 VL with Q27S
notes: scFv clone from phage display
B20: suPAR_DB04_F07 (scFv, V domains shown)
VH: B1 VH with S31G, M34V
VL: B1 VL with Q27S
notes: scFv clone from phage display
B21: suPAR_DB01_F05 (scFv, V domains shown)
VH: B1 VH with T30S, S31N, N55G, N57S
VL: B1 VL with Q27S
notes: Screened as scFv
B22: suPAR_DB04_F05 (scFv, V domains shown)
VH: B1 VH with T30S, S31D, M34V, N55G, N57S, I59S, D61A
VL: B1 VL with V29I
notes: scFv clone from phage display
B23: suPAR_DB04_E09 (scFv, V domains shown)
VH: B1 VH with Y27D, S31D, M34I, N57S, I59S
VL: B1 VL with S24R
notes: scFv clone from phage display
B24: suPAR_DB04_G03 (scFv, V domains shown)
VH: B1 VH with S31G
VL: B1 VL with R26S, Q27S, A54Q
notes: scFv clone from phage display
B25: suPAR_DB04_G05 (scFv, V domains shown)
VH: B1 VH with T28N, F29I, S31D, M34I, H53P, N57S
VL: B1 VL with Q27S, A54Q
notes: scFv clone from phage display
B26: suPAR_DB04_F01 (scFv, V domains shown)
VH: B1 VH with N55G, D61A, Y100D
VL: B1 VL with R26S
notes: scFv clone from phage display
B27: suPAR_DB04_E08 (scFv, V domains shown)
VH: B1 VH with S31G, I59S, D61A
VL: B1 VL with Q27S
notes: scFv clone from phage display
B28: suPAR_DB04_F09 (scFv, V domains shown)
VH: B1 VH with S31N, M34F, I59S
VL: B1 VL with Q27S
notes: scFv clone from phage display
B29: suPAR_DB01_F08 (scFv, V domains shown)
VH: B1 VH with S31G, N57S, D61A
VL: B1 VL with S24R
notes: Screened as scFv
B30: suPAR_DB04_G11 (scFv, V domains shown)
VH: B2 VH with N28T, I29F, V48M, H54D
VL: B1 VL
notes: scFv clone from phage display
B31: suPAR_DB04_E07 (scFv, V domains shown)
VH: B1 VH with Y27D, M34I
VL: B1 VL with Q27S
notes: scFv clone from phage display
B32: suPAR_DB04_F11 (scFv, V domains shown)
VH: B1 VH with Y32H, N55G, I59S, D61A
VL: B1 VL with Q27S
notes: scFv clone from phage display
B33: suPAR_DB04_E12 (scFv, V domains shown)
VH: B1 VH with S31T, H53P, N57S
VL: B1 VL with R26S
notes: scFv clone from phage display
B34: suPAR_DB04_E06 (scFv, V domains shown)
VH: B1 VH with T28S, Y32H
VL: B1 VL with S24R, Q27S
notes: scFv clone from phage display
B35: suPAR_DB04_E04 (scFv, V domains shown)
VH: B1 VH with M34V, Y100T
VL: B1 VL with S24R
notes: scFv clone from phage display
B36: suPAR_DB04_G02 (scFv, V domains shown)
VH: B1 VH with S31N
VL: B1 VL with Q27S, N52S
notes: scFv clone from phage display
B37: suPAR_DB04_F06 (scFv, V domains shown)
VH: B1 VH with S31G, I59S, D61A
VL: B1 VL with V29I
notes: scFv clone from phage display
B38: suPAR_DB04_H01 (scFv, V domains shown)
VH: B1 VH with T30I, S31G, Y32S, M34V
VL: B1 VL with Q27S, N52S
notes: scFv clone from phage display

Experiments:
[1] = target: T1, human soluble urokinase plasminogen activator receptor (hsuPAR) (human, UniProt Q03405 23-303, limits assumed); assay: BLI (Octet) off-rate screen of scFv
T1 construct: also called human suPAR; rhuPAR-His
T1 sequence (Q03405 23-303 limits assumed): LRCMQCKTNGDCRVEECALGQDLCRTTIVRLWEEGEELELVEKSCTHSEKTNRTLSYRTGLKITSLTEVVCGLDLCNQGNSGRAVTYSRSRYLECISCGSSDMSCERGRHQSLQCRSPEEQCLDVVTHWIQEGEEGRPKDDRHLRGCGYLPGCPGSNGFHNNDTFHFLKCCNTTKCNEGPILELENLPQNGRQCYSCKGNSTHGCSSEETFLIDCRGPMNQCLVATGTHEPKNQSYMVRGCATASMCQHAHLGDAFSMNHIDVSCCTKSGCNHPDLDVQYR

[2] = target: T2, cynomolgus soluble urokinase plasminogen activator receptor (cynomolgus suPAR) (cynomolgus, UniProt Q9GK78 23-303, limits assumed); assay: BLI (Octet) off-rate screen of scFv
T2 construct: also called cynomolgus uPAR; cynoPLAUR-His
Target sequence in this assay (Q9GK78 23-303 limits assumed): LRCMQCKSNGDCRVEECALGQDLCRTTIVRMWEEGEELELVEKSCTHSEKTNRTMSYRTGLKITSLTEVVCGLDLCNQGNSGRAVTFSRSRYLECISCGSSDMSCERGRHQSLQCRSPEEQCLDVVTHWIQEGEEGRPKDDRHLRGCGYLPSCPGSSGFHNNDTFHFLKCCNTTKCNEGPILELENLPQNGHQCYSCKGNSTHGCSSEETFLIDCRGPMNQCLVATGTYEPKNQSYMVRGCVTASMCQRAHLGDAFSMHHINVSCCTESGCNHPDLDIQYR

[3] = target: T3, cynomolgus soluble urokinase plasminogen activator receptor (cynomolgus suPAR) (cynomolgus, UniProt Q9GK78 23-303, limits assumed); assay: off-rate screen of scFv clones (kdis), Octet BLI
T3 construct: also called cynomolgus uPAR; cynoPLAUR-His
Target sequence in this assay (Q9GK78 23-303 limits assumed): as above

[4] = target: T4, human soluble urokinase plasminogen activator receptor (hsuPAR) (human, UniProt Q03405 23-303, limits assumed); assay: off-rate screen of scFv clones (kdis), Octet BLI
T4 construct: also called human suPAR; rhuPAR-His
T4 sequence (Q03405 23-303 limits assumed): as the sequence (Q03405 23-303 limits assumed) above

Row | Binder | koff [1] | koff [2] | koff [3] | koff [4]
1 | B1 | 0.00251 s⁻¹ | 6.17e-07 s⁻¹ |  | 
2 | B2 |  |  | 3.92e-07 s⁻¹ | 0.00359 s⁻¹
3 | B3 | 0.00267 s⁻¹ | 4.98e-05 s⁻¹ |  | 
4 | B4 |  |  | 0.000863 s⁻¹ | 0.00375 s⁻¹
5 | B5 |  |  | 0.000647 s⁻¹ | 0.00359 s⁻¹
6 | B6 |  |  | 0.000203 s⁻¹ | 0.00317 s⁻¹
7 | B7 | 0.00183 s⁻¹ | 3.88e-05 s⁻¹ |  | 
8 | B8 |  |  | 0.000274 s⁻¹ | 0.00412 s⁻¹
9 | B9 |  |  | 0.000342 s⁻¹ | 0.000751 s⁻¹
10 | B10 | 0.004 s⁻¹ | 9.84e-05 s⁻¹ |  | 
11 | B11 | 0.00309 s⁻¹ | 4.59e-05 s⁻¹ |  | 
12 | B12 |  |  | 8.1e-05 s⁻¹ | 0.00528 s⁻¹
13 | B13 |  |  | 0.000462 s⁻¹ | 0.00322 s⁻¹
14 | B14 |  |  | 0.000142 s⁻¹ | 0.00116 s⁻¹
15 | B15 |  |  | 0.000174 s⁻¹ | 0.00394 s⁻¹
16 | B16 |  |  | 5.96e-07 s⁻¹ | 0.00424 s⁻¹
17 | B17 |  |  | 0.000158 s⁻¹ | 0.00502 s⁻¹
18 | B18 |  |  | 0.000208 s⁻¹ | 0.0027 s⁻¹
19 | B19 |  |  | 4.31e-05 s⁻¹ | 0.00261 s⁻¹

Row | Binder | koff [1] | koff [2] | koff [3] | koff [4]
20 | B20 |  |  | 3.33e-05 s⁻¹ | 0.00269 s⁻¹
21 | B21 | 0.00175 s⁻¹ | 4.95e-07 s⁻¹ |  | 
22 | B22 |  |  | 0.000278 s⁻¹ | 0.00405 s⁻¹
23 | B23 |  |  | 0.000446 s⁻¹ | 0.00598 s⁻¹
24 | B24 |  |  | 0.000747 s⁻¹ | 0.00119 s⁻¹
25 | B25 |  |  | 8.25e-05 s⁻¹ | 0.00364 s⁻¹
26 | B26 |  |  | 4.88e-07 s⁻¹ | 0.00267 s⁻¹
27 | B27 |  |  | 0.000149 s⁻¹ | 0.00268 s⁻¹
28 | B28 |  |  | 0.000122 s⁻¹ | 0.00462 s⁻¹
29 | B29 | 0.000505 s⁻¹ | 0.000207 s⁻¹ |  | 
30 | B30 |  |  | 0.00021 s⁻¹ | 0.00327 s⁻¹
31 | B31 |  |  | 0.00023 s⁻¹ | 0.00311 s⁻¹
32 | B32 |  |  | 0.000121 s⁻¹ | 0.0051 s⁻¹
33 | B33 |  |  | 8.15e-05 s⁻¹ | 0.00336 s⁻¹
34 | B34 |  |  | 0.000137 s⁻¹ | 0.00564 s⁻¹
35 | B35 |  |  | 0.000451 s⁻¹ | 0.00335 s⁻¹
36 | B36 |  |  | 0.000388 s⁻¹ | 0.00185 s⁻¹
37 | B37 |  |  | 0.000195 s⁻¹ | 0.00279 s⁻¹
38 | B38 |  |  | 0.00104 s⁻¹ | 0.00127 s⁻¹
